The values below come from patent US20240272171A1 (PHENOMEX, published 2024).

Assay [1] has as its target T1, HLA-A*02:01 MHC Class I complex (recombinant, biotinylated) (human, biotinylated (lysine of a C-terminal BirA recognition sequence)).
T1 construct: Bought as a peptide-loaded complex (Biolegend or other maker); also called pHLA (when loaded with peptide)
The experiment in a line: pMHC on streptavidin beads held in T cell culture media at 37 C for 0-48 h; APC W6/32 staining, flow cytometry MFI fitted to an exponential decay.

The target in assay [2] is T1, HLA-A*02:01 MHC Class I complex …. The experiment in a line: loading into HLA-A*02:01 and catalysed peptide exchange test.

No end group written: not given here. *: point of attachment. FITC = O=C1OC2(c3ccc(O)cc3Oc3cc(O)ccc32)c2ccc(NC(=S)*)cc21

B1: SLYSYFQKV (SEQ ID NO: 5), SLC45A2-derived peptide (peptide)
peptide: SLYSYFQKV
notes: also called Immunogenic SLC45A2-derived peptide; SLC45A2 antigen peptide
B1: in assay [1], the “half-life of the complex” value was approximately 17 h. Regarding GAATK(FITC)MAAV [EP5 GAATKMAAV (SEQ ID NO: 13), FITC-labelled in-place peptide GAAT{Lys(FITC)}MAAV], the binding result in assay [2] was “binds”.

B2: SLLPIMWQLY (SEQ ID NO: 6), TCL1-derived peptide (peptide)
peptide: SLLPIMWQLY
notes: also called Non-Immunogenic TCL1-derived peptide
Consider B2, for which the “half-life of the complex” value in assay [1] was approximately 0.5 h.
